Results as given in article PMC7104407, “DBC1, p300, HDAC3, and Siah1 coordinately regulate ELL stability and function for expression of its target genes” (Proceedings of the National Academy of Sciences of the …, 2020).

Target: T1, GST–ELL (human, UniProt P55199 1-621)
T1 construct: ELL (ELL1), human elongation factor; also called purified recombinant GST–ELL; source: bacterial expression system, purified
Assay: pull-down; in vitro direct interaction assay with purified GST–ELL or GST and purified HDAC3
Settings: both partners purified

B1: HDAC3, purified (enzyme, human, UniProt O15379 1-428, looked up)
chain: MAKTVAYFYDPDVGNFHYGAGHPMKPHRLALTHSLVLHYGLYKKMIVFKPYQASQHDMCRFHSEDYIDFLQRVSPTNMQGFTKSLNAFNVGDDCPVFPGLFEFCSRYTGASLQGATQLNNKICDIAINWAGGLHHAKKFEASGFCYVNDIVIGILELLKYHPRVLYIDIDIHHGDGVQEAFYLTDRVMTVSFHKYGNYFFPGTGDMYEVGAESGRYYCLNVPLRDGIDDQSYKHLFQPVINQVVDFYQPTCIVLQCGADSLGCDRLGCFNLSIRGHGECVEYVKSFNIPLLVLGGGGYTVRNVARCWTYETSLLVEEAISEELPYSEYFEYFAPDFTLHPDVSTRIENQNSRQYLDQIRQTIFENLKMLNHAPSVQIHDVPADLLTYDRTDEADAEERGPEENYSRPEAPNEFYDGDHDNDKESDVEI
notes: histone deacetylase 3, human; also called purified HDAC3; source: overexpressed in mammalian 293T cells, purified (high salt-based purification method)
binding result: binds
